Source: the nanobody polyreactivity screen of Harvey et al. (2022)

Test: yeast display, Sf9 membrane polyspecificity reagent, FACS + sequencing; frameworks hold sequencing errors
Summary of the method: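 Nanobodies came from a synthetic yeast display library in Saccharomyces cerevisiae BJ5465, induced with galactose for 36–48 hours and stained for 1 hour at 4 °C with 10% biotinylated, detergent-solubilized Sf9 membrane reagent. Cells were enriched on streptavidin microbeads and then FACS-sorted, with low and high (top ~1%) gates set on anti-HA fluorescence for expression and streptavidin fluorescence for reagent binding. Each polyreactivity label reflects the gate a clone came from. Genes were amplified by colony PCR, sequenced by MiSeq 2 × 250 and filtered by CDR length.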

| Sequence | polyreactivity (PSR sort gate) |
| --- | --- |
| KVQLVESGGGLVQAGGSLRLSCAASGLILWYYAMGWAIQAPGKERELVAAISRYGASTYYADSVKGRFTISRDNAKNTDYLQLNSLKPEDTAVYYCATGSSRYRHQRDYLGQGTQVTVSS | high polyreactivity |
| KVQLVESGGGLVQAGGSLRLSCAASGRIFYSNVMGWYRQATGKERELVAAISGRTGGTYYADSVKGRFTISRDNAKNTVYLQMNSLKPEDTAVYYCAARFIYYYGSGPDDYWGQGTQVTVSS | low polyreactivity |
| KVQLVESGGGLVQAGGSLRLSCAASGRTFESYAMGWYRQAPGKERELVAAITWSGGDTYYADSVKGRFTISRDNAKNTVYLQMNSLKPEDTAVYYCAKEQGLYSVSPYDYWGLGTQVTVSS | low polyreactivity |
| KVQLVESGGGLVQAGGSLRLSCAASGSIFSFYTKGWYRQAPGKERELVAAINWSGSRTYYADSVKGRFTISRDNAKNTVYLQMNSLKPVDTAVYYCAAYLWFYVRYEYWGQGTQVTVSS | high polyreactivity |
| KVQLVESGGGLVQAGGSLRLSCAASGSIFWFYAMGWYRQAPGKEREFVATISRSCGSTYYADSVKGRFTISRDNAKNTDYLQMNSLKPEDTAVYYCIARGPRSHRYDYWGQGTQVNVSS | high polyreactivity |
| KVQLVESGGGLVQAGGSLRLSCAASGSTFYYYAMGWYSQAPGKERELVAAITSSTGSTYYADSVKGRFTISRDNAKNTVYLQMNSLKPVDTAVYYCAATDPYAYYWGQGTKVTVSS | high polyreactivity |
| KVQLVESGGGLVQAGGSLRLSCAASGSTISGYAMGWYRQAPGKERELVAAITIGGGTYYADSVKGRFPISRDNAKNTVYLQMNSLKPEDTGVYYCNAYRRKLWYPTGMYWGQGTQVTVSW | high polyreactivity |
| KVQLVESGGGLVQEGGSLPLSCAASGRTFDYNTMGWYRQAPGKERELVAAISSRGDSTYYADSVKGLFTISRDKAKNTVYLQMNSLNPEDTAVYYCAARYYPGRGFGYGYWGQGTQVTVSS | high polyreactivity |
| KVQLVESGGGLVQPGGSLRLSCASSGQTFTTNEMGWNRQAHGKERDLLAAISRRGSRTYYADSVKGRFTISRDNAKNSVFLQMNSLKPEDTAVYYCNALTGSFKTYSFDYWGQGTQVTVSS | high polyreactivity |
| KVQLVESGGGLVQSGVSLRLSCAASGYTFEYNAMGWYIQAPGKEREFVSTITASGDSTYYAVSVKGRFTMSRDNAKNTVYFQMNSLKPEDTAVYYCAVDCAYLDDYSFTWDDYWGQGTQVTVSS | low polyreactivity |
| KVQLVESVGGLVQAGGSLRLSCAASGFTFCRNTMGWYRQAPGKEREFVAAITVTGGSTYYADSVKGRFTISRDNAKNTVYLQMNSLKPEDTAVYYCAAGWTSAYVNYDYWGQGTQVTVSS | low polyreactivity |
| KVQLVETGGGLVQAGGSLRLSCAASGRTFWGYAKGWYRQAPGKEREFVAAISCGGRTNYADSVKGRFTISRDNAKNTVYLQLNSLKPEDSAVYYCATVSGYGYYYWGQGTQVTVSS | low polyreactivity |
| KVQVVESGGGLVQAGGSLRLSCAASGSTFYYNAMGWYTQAPGKERELVAAITGSGTGTNYADSVKGRFTISRDNAKNTVYLQMNSLKPEDTAVYYCAADYVWRGDPINSYLSWYVYWGQGTQVTVSS | low polyreactivity |
| LVQHVESGGGLVQAGGSLRLNCAASGRTFKPYAMGWYIQSPGKERELVAAISTRGGSTYYADSVKGRFTISRDNAKNSVFLQMNSLKPEDTALFYCAATQPGRDYDYWGQGTQVTVSS | low polyreactivity |
| LVQLQESGGCLVLAGGGLRLSCAASGNIFTYVIMGWYRQPPGKERELVAAITYGTITNYADSVKGPFTISRDNAKNTVYMQMNCLKPEDTAVYHCAVQSPRIEPRLYYWGQGTQVTVSS | high polyreactivity |
| LVQLQESGGGLVQAGGSLRLSCAASGTNSPGGYMGWYRKAPGKERELVASINVGGSTNYADSVKGRFTISRDNAKNTVYLQMNSLKPEDNAVYFCAVWGRNRLQLSYWGQGTQVTVSS | low polyreactivity |
| LVQLQESGGGLVQPGGRLRLSCAASGTISPGGYMGWYRQAPGKERELVASINVGGRTNYADSVKGRFTISRDNAKNTVYLQMNSLKPEDNAVSYCAVWGRNRLQLSYWGQGTQVTVSS | low polyreactivity |
| LVQLVESGGGLVQAGGSLRLSCAASGAIFYQDAQGCYRQAPGKERELVAAISKNGRSTYYADSVKGRFTISRDNAKNTVYLQMNSLKPEATAVYYCAARVLKGYYWGQGTQVTVSS | high polyreactivity |
| LVQLVESGGGLVQAGGSLRLSCAASGRIIPPNAMGWYRQAPGTERELVATITWGVGSTYYADSVKGRFTISRDNAKNTVYLQMNSLKPEDTAVYYCYARRFRPYGFYYWGQGTQVTVSS | high polyreactivity |
| LVQLVESGGGLVQAGGSLRLSCAASGRTFPGYAMGGYSQAPGKERELVASINFRGGGTYADSVKGRFTISRDNAKNTVYLLMNSLKPEDTAVYYCAAEYFWGKRRFGYWGQGTQVTVSS | high polyreactivity |
| LVQLVESGGGLVQAGGSLRLSCAASGSIFPPYAMGWYRQAPGKERELVAARSNGGSTNYAYAVKGRFTISRDNPNYTVYLQMNSLIPEDTAVYYCVARQYYLGWFPYWRIFDYWGQGTQVTVSS | high polyreactivity |
| LVQLVESGGGLVQAGGSLRLSCAASGSIFSVYAMGWYRQAPGKERELVAAITWRGGNTYYADSVKGRFTLSRDNAKNTVYLQMNSLKPEDTAVYYCNRVYRQRLGRDYWGQGTQVTVSS | high polyreactivity |

| Sequence | polyreactivity (PSR sort gate) |
| --- | --- |
| LVQLVESGGGLVQAGGSLRLSCAASGSTFIPYAMGWYRQAPGKERELVAAIRGGDGSTYYADSVKGRFTISRDNAKNTVYLQMNSLKPEDTAVYYCAADTVITAYFYRFWRYNYWGQGTQVTVSS | low polyreactivity |
| LVQLVESGGGLVQAGGSLRVSCAASGLIIYDNAMGGYRQAPGKEREVVATISSGGRTYYADSVKGRFTISRDNAKNTVYLQMNSLKPEDTAVYYCAVDPGYSWYAQYDYWGQGTQVTVSS | low polyreactivity |
| LVQVVESGGGLVQAGCSLRLSCAASGRTFGVYAMGWYRQAPGKEWELVASISRSGGSTYYADSLKGRFTISRDNAKNTVYLQMNSLIPEDTAVYYCAAVYKRGMDYWGQGTQVTVSS | high polyreactivity |
| PLQLVESGGGLVQAGGSLRLSCAASGRIFGTYAMGWYRQAPGKERELVAAITLSDGSTYYADSVKGRFTISRDNAKNTVYLEMNSLIPDDTAVYYCAAVVDRFHPGLYEYWGQGTQVTVSS | low polyreactivity |
| PLQLVESGGGLVQAGGSLRLSCAASGTIFVQTDRGWYRQAPGKERELVAAISSGSSTNYADSVNGRFTISRDNAKNTVYLQMNSLKPEDSAAYYCAVTSPYSQGYSYWGADSRDYWGQGTQVTVSS | low polyreactivity |
| PVQIVESGGVLDQAGGSLRLSCAASGSIFTRNTMGWYRQAPRKERELVAAISQRGGSTYYADSVKGRFTISRDNAKNTVYLQMNSLIPEDTAVYFCAADFSFGYYWYGYWGQGTQVTVSS | high polyreactivity |
| PVQLQESGGGLMQAGGNLRLSCAASGYISTHYDMDWYRQAPGKERELVARIDDGAITNYADSVKGRFTISRDNAKNTVYLQMNSLKPEDTAVYYCAVYSGDDYYHDYWGQGTQVTVSS | low polyreactivity |
| PVQLVDSGGGLVQAGGSLRLSCGASGRTFRKYGIGWYRQAAGKERELVAGISRSGGTTYYADTVKGRFTISRDTAKNTVYLQMNSLKPEDTAVYYCAKRTGPSGEDYWGQGTQVTVSS | high polyreactivity |
| PVQLVESGGGLGQAGGSLRLSCAASGSTFLYSAMGWYRPAPGKERELVAGISASGGSSYYADSVKGRFTISRDYAKNTVYLQMNSLKPEDTAVYYCNATRVVIRHSYDYWGQGTQVTVSS | high polyreactivity |
| PVQLVESGGGLVQAGGRLLLICAASGSIFTPKAMGWYRQAPGKERELVAAITSRGGSTYYADSVKGRFTISRDNAKNTFYLQMNSLKPEDTAVYYCASKPHSSKYDYWGQGTQVTVSS | low polyreactivity |
| PVQLVESGGGLVQAGGSHRLSCAASGITFGVYPMGWYRQAAGKERELVAAISRRGASTYYADSVKGRFTISRDKAKNSVYLQMNSLKPEDTAVYYCAAYLARRQYDYWGQGTQVTVSS | high polyreactivity |
| PVQLVESGGGLVQAGGSLLLSCAASGRIFSRNAMGWNIQAPGKERELVAAISRSGTSTYYADSVKGRFTSSRDNAKNTVYLQMNSLKPEETAVYYCAADYPAVISIRRYDYWGQGTQLTVSS | low polyreactivity |
| PVQLVESGGGLVQAGGSLRISCAASGSIFRVNAMGWYRQAPGKERELVAAITTNGGSTYYADSVKGRFTISRDNAKNTVYLQMNSLKPEDTAVYYCAADYSLPWSWLYEYWGQGTQVTVSS | low polyreactivity |
| PVQLVESGGGLVQAGGSLRLICAASGRIFLPYAMGWYRQAPGKERELVASITRRGGTTYYADSVKGRFTLSRDYAKNTDYLQLNSLKTEDTSVYYCAADSGYRLQSYGYWGQGTQVTVSS | high polyreactivity |
| PVQLVESGGGLVQAGGSLRLICAASGSIFYQYTMGWYRQAPGKERELVATISWSDVSTYYADSVKGRFTISRENAQNPVYLQMNSLKPEDTSVYYCAALYSGWDRYYGYDYWGQGTQVTVSS | low polyreactivity |
| PVQLVESGGGLVQAGGSLRLSCAACGYTFQVYAMGWYRQAPGKERELVASIRWRGGRTYYADSVKGRFTISRDNAKNTVYLKLNSLKPADTSVYYCAARQFVIYPTYYTYYYWGQGTQVTVSS | high polyreactivity |
| PVQLVESGGGLVQAGGSLRLSCAASGRTFLVYSMGWYRQAPGKERELVAAISNGGSTNYADSVKGRFTISRDNAKKTVYLQMNSLKPEDTALYDCATRIHKWYYYWGQGTQVTVSS | high polyreactivity |
| PVQLVESGGGLVQAGGSLRLSCAASGSIFAVNALGWSRQAPGKERELVAAITSGGNTYYADSVKGRFTISRDNAKNTVYLQMNSLKPEDTAVYDCATVFSVQGWYFGMNYWGQGTQVTVSS | low polyreactivity |
| PVQLVESGGGLVQAGGSLRLSCAASGSIFGYYAMGWYRQAPGKERELVAAISSSGASTYYADSVKGRFTISRDNAKNTVSLQMNSLKPEDTAVSYCIAARRYPTRGGYWGQGTQVTVSS | high polyreactivity |
| PVQLVESGGGLVQAGGSLRLSCAASGSIFGYYAMGWYRQAPGKERELVAAITWSGDSTYYADSVKGRFTISRDNAKNTVYLQMNSLKPEDTAVYYCAARQFVHTRYFSFGYWGQGTQVTVSS | low polyreactivity |
| PVQLVESGGGLVQAGGSLRLSCAASGSTFAYNDLGWYRQAPGKERELVADIRSGGNTNYADSVKGRFTISRDNAKNTVYLQMNSLKPEDTAVYYCATDGYRIDVFHPDYRYDYWGQGTQETVSS | low polyreactivity |
